Assay results reported in the supplement of paper PMC5998384.

How the values were obtained:
[1] = test system: HeLa Kyoto; assay: solubility change mitosis vs G1/S (difference of NP-40 vs SDS log2 ratios) (log2 ratio difference); higher = more soluble in mitosis
[2] = test system: HeLa Kyoto; assay: solubility in G1/S (NP-40 vs SDS abundance) (log2 ratio); higher = more soluble; conditions: cell cycle stage: G1/S
[3] = test system: HeLa Kyoto; assay: melting temperature (median over replicates), in situ; higher = more thermally stable
[4] = test system: HeLa Kyoto; assay: thermal stability score vs G1/S (z-score of summed log2 fold changes over temperatures); higher = more thermally stable than in G1/S
[5] = cell cycle stage: early G1 (4.5 h after nocodazole release)
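For melting temperature (median over replicates), in situ in this document: HeLa Kyoto cells synchronized by double thymidine or nocodazole block, proteins quantified by TMT10plex mass spectrometry, three independent biological replicates.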
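For solubility change mitosis vs G1/S (difference of NP-40 vs SDS log2 ratios) in this document: synchronized HeLa Kyoto cells (double thymidine block for G1/S, nocodazole release for mitosis), protein amounts in NP-40 versus SDS lysates quantified by mass spectrometry, three biological replicates.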
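For solubility in G1/S (NP-40 vs SDS abundance) in this document: HeLa Kyoto cells arrested at G1/S by double thymidine block, proteins quantified by TMT10plex mass spectrometry in mild NP-40 versus SDS extracts, three biological replicates.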
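For thermal stability score vs G1/S (z-score of summed log2 fold changes over temperatures) in this document: synchronized HeLa Kyoto cells, proteins quantified by TMT10plex mass spectrometry, three biological replicates, mitosis taken 0.5 h after nocodazole release, G1/S directly after double thymidine block.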

Sequence | solubility change mitosis (log2) [1] | solubility in G1/S (log2) [2] | melting temperature ([3]; cell cycle stage: G1/S) | melting temperature ([3]; cell cycle stage: mitosis) | thermal stability score [4, 5] | thermal stability score ([4]; cell cycle stage: mitosis)
MPGPRRPAGSRLRLLLLLLLPPLLLLLRGSHAGNLTVAVVLPLANTSYPWSWARVGPAVELALAQVKARPDLLPGWTVRTVLGSSENALGVCSDTAAPLAAVDLKWEHNPAVFLGPGCVYAAAPVGRFTAHWRVPLLTAGAPALGFGVKDEYALTTRAGPSYAKLGDFVAALHRRLGWERQALMLYAYRPGDEEHCFFLVEGLFMRVRDRLNITVDHLEFAEDDLSHYTRLLRTMPRKGRVIYICSSPDAFRTLMLLALEAGLCGEDYVFFHLDIFGQSLQGGQGPAPRRPWERGDGQDVSARQAFQAAKIITYKDPDNPEYLEFLKQLKHLAYEQFNFTMEDGLVNTIPASFHDGLLLYIQAVTETLAHGGTVTDGENITQRMWNRSFQGVTGYLKIDSSGDRETDFSLWDMDPENGAFRVVLNYNGTSQELVAVSGRKLNWPLGYPPPDIPKCGFDNEDPACNQDHLSTLEVLALVGSLSLLGILIVSFFIYRKMQLEKELASELWRVRWEDVEPSSLERHLRSAGSRLTLSGRGSNYGSLLTTEGQFQVFAKTAYYKGNLVAVKRVNRKRIELTRKVLFELKHMRDVQNEHLTRFVGACTDPPNICILTEYCPRGSLQDILENESITLDWMFRYSLTNDIVKGMLFLHNGAICSHGNLKSSNCVVDGRFVLKITDYGLESFRDLDPEQGHTVYAKKLWTAPELLRMASPPVRGSQAGDVYSFGIILQEIALRSGVFHVEGLDLSPKEIIERVTRGEQPPFRPSLALQSHLEELGLLMQRCWAEDPQERPPFQQIRLTLRKFNRENSSNILDNLLSRMEQYANNLEELVEERTQAYLEEKRKAEALLYQILPHSVAEQLKRGETVQAEAFDSVTIYFSDIVGFTALSAESTPMQVVTLLNDLYTCFDAVIDNFDVYKVETIGDAYMVVSGLPVRNGRLHACEVARMALALLDAVRSFRIRHRPQEQLRLRIGIHTGPVCAGVVGLKMPRYCLFGDTVNTASRMESNGEALKIHLSSETKAVLEEFGGFELELRGDVEMKGKGKVRTYWLLGERGSSTRG [NPR1] | -0.0544 | 0.0297 | 52.4 °C | 51.4 °C | 0.231 | -0.0841
MANIAVQRIKREFKEVLKSEETSKNQIKVDLVDENFTELRGEIAGPPDTPYEGGRYQLEIKIPETYPFNPPKVRFITKIWHPNISSVTGAICLDILKDQWAAAMTLRTVLLSLQALLAAAEPDDPQDAVVANQYKQNPEMFKQTARLWAHVYAGAPVSSPEYTKKIENLCAMGFDRNAVIVALSSKSWDVETATELLLSN [UBE2K] | -0.0147 | 0.332 | 53.2 °C | 53.9 °C | -2.17 | 0.646
MAAAAAQGGGGGEPRRTEGVGPGVPGEVEMVKGQPFDVGPRYTQLQYIGEGAYGMVSSAYDHVRKTRVAIKKISPFEHQTYCQRTLREIQILLRFRHENVIGIRDILRASTLEAMRDVYIVQDLMETDLYKLLKSQQLSNDHICYFLYQILRGLKYIHSANVLHRDLKPSNLLINTTCDLKICDFGLARIADPEHDHTGFLTEYVATRWYRAPEIMLNSKGYTKSIDIWSVGCILAEMLSNRPIFPGKHYLDQLNHILGILGSPSQEDLNCIINMKARNYLQSLPSKTKVAWAKLFPKSDSKALDLLDRMLTFNPNKRITVEEALAHPYLEQYYDPTDEPVAEEPFTFAMELDDLPKERLKELIFQETARFQPGVLEAP [MAPK3] | -0.228 | 0.391 | 51.3 °C | 50.2 °C | -0.246 | -0.247
MKKEHVLHCQFSAWYPFFRGVTIKSVILPLPQNVKDYLLDDGTLVVSGRDDPPTHSQPDSDDEAEEIQWSDDENTATLTAPEFPEFATKVQEAINSLGGSVFPKLNWSAPRDAYWIAMNSSLKCKTLSDIFLLFKSSDFITRDFTQPFIHCTDDSPDPCIEYELVLRKWCELIPGAEFRCFVKENKLIGISQRDYTQYYDHISKQKEEIRRCIQDFFKKHIQYKFLDEDFVFDIYRDSRGKVWLIDFNPFGEVTDSLLFTWEELISENNLNGDFSEVDAQEQDSPAFRCTNSEVTVQPSPYLSYRLPKDFVDLSTGEDAHKLIDFLKLKRNQQEDD [CDC123] | -0.111 | -0.058 | 51.7 °C | 50.8 °C | 1.5 | 0.565
MSGFDDPGIFYSDSFGGDAQADEGQARKSQLQRRFKEFLRQYRVGTDRTGFTFKYRDELKRHYNLGEYWIEVEMEDLASFDEDLADYLYKQPAEHLQLLEEAAKEVADEVTRPRPSGEEVLQDIQVMLKSDASPSSIRSLKSDMMSHLVKIPGIIIAASAVRAKATRISIQCRSCRNTLTNIAMRPGLEGYALPRKCNTDQAGRPKCPLDPYFIMPDKCKCVDFQTLKLQELPDAVPHGEMPRHMQLYCDRYLCDKVVPGNRVTIMGIYSIKKFGLTTSRGRDRVGVGIRSSYIRVLGIQVDTDGSGRSFAGAVSPQEEEEFRRLAALPNVYEVISKSIAPSIFGGTDMKKAIACLLFGGSRKRLPDGLTRRGDINLLMLGDPGTAKSQLLKFVEKCSPIGVYTSGKGSSAAGLTASVMRDPSSRNFIMEGGAMVLADGGVVCIDEFDKMREDDRVAIHEAMEQQTISIAKAGITTTLNSRCSVLAAANSVFGRWDETKGEDNIDFMPTILSRFDMIFIVKDEHNEERDVMLAKHVITLHVSALTQTQAVEGEIDLAKLKKFIAYCRVKCGPRLSAEAAEKLKNRYIIMRSGARQHERDSDRRSSIPITVRQLEAIVRIAEALSKMKLQPFATEADVEEALRLFQVSTLDAALSGTLSGVEGFTSQEDQEMLSRIEKQLKRRFAIGSQVSEHSIIKDFTKQKYPEHAIHKVLQLMLRRGEIQHRMQRKVLYRLK [MCM5] | -0.0997 | -0.322 | 51.9 °C | 51.4 °C | 1.16 | 0.714
MASAELQGKYQKLAQEYSKLRAQNQVLKKGVVDEQANSAALKEQLKMKDQSLRKLQQEMDSLTFRNLQLAKRVELLQDELALSEPRGKKNKKSGESSSQLSQEQKSVFDEDLQKKIEENERLHIQFFEADEQHKHVEAELRSRLATLETEAAQHQAVVDGLTRKYMETIEKLQNDKAKLEVKSQTLEKEAKECRLRTEECQLQLKTLHEDLSGRLEESLSIINEKVPFNDTKYSQYNALNVPLHNRRHQLKMRDIAGQALAFVQDLVTALLNFHTYTEQRIQIFPVDSAIDTISPLNQKFSQYLHENASYVRPLEEGMLHLFESITEDTVTVLETTVKLKTFSEHLTSYICFLRKILPYQLKSLEEECESSLCTSALRARNLELSQDMKKMTAVFEKLQTYIALLALPSTEPDGLLRTNYSSVLTNVGAALHGFHDVMKDISKHYSQKAAIEHELPTATQKLITTNDCILSSVVALTNGAGKIASFFSNNLDYFIASLSYGPKAASGFISPLSAECMLQYKKKAAAYMKSLRKPLLESVPYEEALANRRILLSSTESREGLAQQVQQSLEKISKLEQEKEHWMLEAQLAKIKLEKENQRIADKLKNTGSAQLVGLAQENAAVSNTAGQDEATAKAVLEPIQSTSLIGTLTRTSDSEVPDVESREDLIKNHYMARIVELTSQLQLADSKSVHFYAECRALSKRLALAEKSKEALTEEMKLASQNISRLQDELTTTKRSYEDQLSMMSDHLCSMNETLSKQREEIDTLKMSSKGNSKKNKSR [PPP1R21] | -0.00813 | 0.371 | 51.3 °C | 51 °C | 1.34 | 1.02
MSLRKQTPSDFLKQIIGRPVVVKLNSGVDYRGVLACLDGYMNIALEQTEEYVNGQLKNKYGDAFIRGNNVLYISTQKRRM [LSM6] | 0.276 | 0.0787 | 57.7 °C | 54 °C | -1.66 | -2.63
MPHLENVVLCRESQVSILQSLFGERHHFSFPSIFIYGHTASGKTYVTQTLLKTLELPHVFVNCVECFTLRLLLEQILNKLNHLSSSEDGCSTEITCETFNDFVRLFKQVTTAENLKDQTVYIVLDKAEYLRDMEANLLPGFLRLQELADRNVTVLFLSEIVWEKFRPNTGCFEPFVLYFPDYSIGNLQKILSHDHPPEYSADFYAAYINILLGVFYTVCRDLKELRHLAVLNFPKYCEPVVKGEASERDTRKLWRNIEPHLKKAMQTVYLREISSSQWEKLQKDDTDPGQLKGLSAHTHVELPYYSKFILIAAYLASYNPARTDKRFFLKHHGKIKKTNFLKKHEKTSNHLLGPKPFPLDRLLAILYSIVDSRVAPTANIFSQITSLVTLQLLTLVGHDDQLDGPKYKCTVSLDFIRAIARTVNFDIIKYLYDFL [ORC5] | -0.126 | -0.362 | 47.1 °C | 49 °C | 0.957 | 1.24
MDGEEQQPPHEANVEPVVPSEASEPVPRVLSGDPQNLSDVDAFNLLLEMKLKRRRQRPNLPRTVTQLVAEDGSRVYVVGTAHFSDDSKRDVVKTIREVQPDVVVVELCQYRVSMLKMDESTLLREAQELSLEKLQQAVRQNGLMSGLMQMLLLKVSAHITEQLGMAPGGEFREAFKEASKVPFCKFHLGDRPIPVTFKRAIAALSFWQKVRLAWGLCFLSDPISKDDVERCKQKDLLEQMMAEMIGEFPDLHRTIVSERDVYLTYMLRQAARRLELPRASDAEPRKCVPSVVVGVVGMGHVPGIEKNWSTDLNIQEIMTVPPPSVSGRVSRLAVKAAFFGLLGYSLYWMGRRTASLVLSLPAAQYCLQRVTEARHK [TRABD] | 0.0374 | 0.184 | 52.2 °C | 50.2 °C | 0.0844 | 0.106
MADGQVAELLLRRLEASDGGLDSAELAAELGMEHQAVVGAVKSLQALGEVIEAELRSTKHWELTAEGEEIAREGSHEARVFRSIPPEGLAQSELMRLPSGKVGFSKAMSNKWIRVDKSAADGPRVFRVVDSMEDEVQRRLQLVRGGQAEKLGEKERSELRKRKLLAEVTLKTYWVSKGSAFSTSISKQETELSPEMISSGSWRDRPFKPYNFLAHGVLPDSGHLHPLLKVRSQFRQIFLEMGFTEMPTDNFIESSFWNFDALFQPQQHPARDQHDTFFLRDPAEALQLPMDYVQRVKRTHSQGGYGSQGYKYNWKLDEARKNLLRTHTTSASARALYRLAQKKPFTPVKYFSIDRVFRNETLDATHLAEFHQIEGVVADHGLTLGHLMGVLREFFTKLGITQLRFKPAYNPYTEPSMEVFSYHQGLKKWVEVGNSGVFRPEMLLPMGLPENVSVIAWGLSLERPTMIKYGINNIRELVGHKVNLQMVYDSPLCRLDAEPRPPPTQEAA [FARSA] | -0.0944 | 0.0439 | 50.2 °C | 50.4 °C | 0.422 | 0.356
MAAAVAAAGAGEPQSPDELLPKGDAEKPEEELEEDDDEELDETLSERLWGLTEMFPERVRSAAGATFDLSLFVAQKMYRFSRAALWIGTTSFMILVLPVVFETEKLQMEQQQQLQQRQILLGPNTGLSGGMPGALPSLPGKI [TOMM22] | 0.211 | -0.782 | 53.4 °C | 52.8 °C | -3.84 | -4.82
